Measured values: the supplement of paper PMC11865577

These sequences were tested on TO-N3-2 (biotin conjugate) (assay: pull-down binding Z-score (relative to library population); higher = stronger binding). Details: RNA library: Library-2.
How it was run: (§1)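 Streptavidin beads with 100 pmol of biotin-conjugated small molecule were incubated for 60 min at 25 °C with 1 μg of heat-folded Cy5- or Cy3-end-labelled RNA library in phosphate/NaCl/KCl buffer. Bound RNA was eluted in hot SDS after three washes and hybridised to a DNA barcode microarray at 55.5 °C for 20 h. Each binding score is a library-referenced Z-score, computed after beads-only subtraction and a trimmed mean of barcoded replicate probes.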
With “AGGUUUGUGUCCAAUACAGUCCACACCU [hsa-mir-3200]” the “pull-down binding Z-score” value was -0.572. For “AGUAGCUGGGAAUACAGGUGUGUGCCACCAUGCCUCUACAAGCUACC [hsa-mir-7851]”, the “pull-down binding Z-score” value was 0.445. “AGUAUGGAUUAAAUUUAUAUUUUCCUCGAUACU [hsa-mir-8084]” was tested, and the “pull-down binding Z-score” value was -0.547. “AGUAUUUUAAUCAUAGAUUGUAUUUAGUUAGUUUUUAAUACU [hsa-mir-4637]” was tested, and the “pull-down binding Z-score” value was -0.965. With AGUCACUUACACUACAUGUCACU [hsa-mir-892a] the “pull-down binding Z-score” value was -0.587. AGUCACUUAGAUUACAUGUCACU [hsa-mir-892c] was tested, and the “pull-down binding Z-score” value was -0.486. For AGUCACUUAGAUUACAUGUGACU [hsa-mir-888], the “pull-down binding Z-score” value was -0.915. AGUCCAAAGGAAAGGGCU [hsa-mir-8077] was tested, and the “pull-down binding Z-score” value was -0.0277. “AGUCCGUGCAUCCGCCCUUCGAUGCUUGGGUU [hsa-mir-3182]” was tested, and the “pull-down binding Z-score” value was 0.421. AGUCCUGUAAUUAGAUCUCAGGACU [hsa-mir-625] was tested, and the “pull-down binding Z-score” value was -0.88. With “AGUCUCUGAAGAGAGCUGUGGACUGA [hsa-mir-6721]” the “pull-down binding Z-score” value was 0.916. AGUCUGUCUCAUACCCAACCAGAUU [hsa-mir-205] was tested, and the “pull-down binding Z-score” value was -0.233. With “AGUGAAAUAAAGGUCCAUCUCCUGCCUAUUUAUUACUUUGCU [hsa-mir-1243]” the “pull-down binding Z-score” value was -0.5. For AGUGAGCUGAGAUCACGCAACU [hsa-mir-1273f], the “pull-down binding Z-score” value was 0.629. For AGUGAGGCGUCGGCUGUGUUUCU [hsa-mir-2110], the “pull-down binding Z-score” value was 1.03. AGUGAGUUGAUUACUUCUCACU [hsa-mir-4676] was tested, and the “pull-down binding Z-score” value was -0.222. “AGUGCAGUAUGGUGAAGUCAAUCUGUAAU [hsa-mir-590]” was tested, and the “pull-down binding Z-score” value was 0.424. “AGUGCCUCACAGCCGCACAGGACCGAGGAUGCU [hsa-mir-4737]” was tested, and the “pull-down binding Z-score” value was 0.917. AGUGCUAGGACACU [hsa-mir-374c] was tested, and the “pull-down binding Z-score” value was -0.579.

Each sequence was assayed on TO-3-N3-2 (biotin conjugate) in the same assay as above. Details: RNA library: Library-2.
How it was run: as §1
For “AGCCACUGCGGUCGACCAUGACCUGGA [hsa-mir-619]”, the “pull-down binding Z-score” value was 0.0618. In the case of “AGCCCUGGGCUCCUCAGCAAACCUACUGGAU [hsa-mir-3174]”, the “pull-down binding Z-score” value was 0.3. For “AGCCCUGUUGUUGUAAGAUAGUGU [hsa-mir-550a-1]”, the “pull-down binding Z-score” value was -0.124. In the case of “AGCCCUGUUGUUGUCAGAUAGUGU [hsa-mir-550a-2]”, the “pull-down binding Z-score” value was 0.21. For “AGCCUCCAAACCUGUAGACAGGGUCAUGCAGUACUAGGGGCGAG [hsa-mir-4478]”, the “pull-down binding Z-score” value was 0.175. “AGCCUUCUAUUAUGCCCAGACAGGGCCACCAGAGGGCU [hsa-mir-4448]” was tested, and the “pull-down binding Z-score” value was -0.619. For AGCGCGAAAGU [hsa-mir-1539], the “pull-down binding Z-score” value was 0.0743. With AGCGCGGCGACCGUAACUCCU [hsa-mir-1237] the “pull-down binding Z-score” value was 0.313. For “AGCUGGCUGAAGGGCAGAAGGGAACUGUCCUUCAGCCAGAG [hsa-mir-4487]”, the “pull-down binding Z-score” value was -0.156. For AGCUGGGGCCGGGU [hsa-mir-4281], the “pull-down binding Z-score” value was 0.821. For AGCUGGGUGGAGGCAGAGCU [hsa-mir-4291], the “pull-down binding Z-score” value was 1.23. AGCUGUGAAAGUCCUAGCU [hsa-mir-1256] was tested, and the “pull-down binding Z-score” value was 0.221. With “AGCUGUGUUUUCUGACUCAGUCAUAAU [hsa-mir-365b]” the “pull-down binding Z-score” value was -0.263. AGCUGUUGAACUGGGAACCUGCU [hsa-mir-31] was tested, and the “pull-down binding Z-score” value was -0.00735. For “AGCUGUUGGCCAUGGCGACAACACCU [hsa-mir-6742]”, the “pull-down binding Z-score” value was -0.322. In the case of “AGCUUCUACGUCAUUCAGCACUUGCU [hsa-mir-5706]”, the “pull-down binding Z-score” value was -0.211. With “AGCUUCUUUAUAAGAAGAGGAAACU [hsa-mir-3923]” the “pull-down binding Z-score” value was 0.00803. With “AGCUUUAUGUAUUCUGAAGUUAUUGAAAAUAAGAGCU [hsa-mir-3140]” the “pull-down binding Z-score” value was -0.254. In the case of “AGGACACAGGCUGGCACUGAGGUCCC [hsa-mir-6887]”, the “pull-down binding Z-score” value was -0.0807. In the case of AGGACGGUGCGCCUUGUUUCCC [hsa-mir-3132], the “pull-down binding Z-score” value was -0.0152. In the case of “AGGAGAAGGUGAGACCAAUGUCCUGGGUGCCACUCCU [hsa-mir-6124]”, the “pull-down binding Z-score” value was -0.00463. In the case of AGGAGGGUCC [hsa-mir-3141], the “pull-down binding Z-score” value was 0.356. For AGGAGUUCACU [hsa-mir-1183], the “pull-down binding Z-score” value was -0.383. With “AGGCAACAUGGCCGAGAGGCCGGGGCCU [hsa-mir-564]” the “pull-down binding Z-score” value was -0.533. For “AGGCACAUAUGUGAACAUUGUACCA [hsa-mir-5707]”, the “pull-down binding Z-score” value was 0.00393. With AGGCAUGGGUGGCU [hsa-mir-8085] the “pull-down binding Z-score” value was 0.062. In the case of “AGGCAUUAGGAUCCUUAUUCUUGCCU [hsa-mir-4788]”, the “pull-down binding Z-score” value was -0.442. With AGGCCAUACGUGUUGGAGAUU [hsa-mir-4461] the “pull-down binding Z-score” value was 0.301. “AGGCCGACGAGCAGCGCAUCCUCUUACCCGGCUA [hsa-mir-138-2]” was tested, and the “pull-down binding Z-score” value was 0.171. For “AGGCCGUUGCCAAUCAGAGAACGGCUA [hsa-mir-138-1]”, the “pull-down binding Z-score” value was 0.52. “AGGCCUGAGUCUCUCUGCUGCAGAUGGGCUC [hsa-mir-422a]” was tested, and the “pull-down binding Z-score” value was -0.0262. In the case of AGGCUCUGCAAGAUCAACCGAGCA [hsa-mir-330], the “pull-down binding Z-score” value was 0.141. “AGGCUCUGGGUCCGGCUUACUCCCUAGCUUACUGUCCUCAGAACCC [hsa-mir-6071]” was tested, and the “pull-down binding Z-score” value was 0.226. With AGGCUGGUCUCAAACUCCU [hsa-mir-5096] the “pull-down binding Z-score” value was -0.228. For “AGGCUGUCUUCAUUCCCUCUUGACCACCC [hsa-mir-6795]”, the “pull-down binding Z-score” value was 0.213. For “AGGCUUGGCACUUGAGGGAAAGCCU [hsa-mir-8059]”, the “pull-down binding Z-score” value was 0.0114. For “AGGGACCCCCGGAGUCUGUCACGGUCUCA [hsa-mir-6784]”, the “pull-down binding Z-score” value was 0.215. “AGGGCAAGUCCAAAGGUAUACAGUUGGUCUGUUCA [hsa-mir-7107]” was tested, and the “pull-down binding Z-score” value was -0.208. In the case of “AGGGCAGCUCCCAUGACUGCCUGACCGC [hsa-mir-6880]”, the “pull-down binding Z-score” value was 0.266. In the case of AGGGCAGGGGUGUGGCU [hsa-mir-4751], the “pull-down binding Z-score” value was 2.67. AGGGCCUUCUGAGCCCAGGUCCG [hsa-mir-6716] was tested, and the “pull-down binding Z-score” value was 0.018. AGGGCUGGGAUUACUAAAGCCCU [hsa-mir-1266] was tested, and the “pull-down binding Z-score” value was -0.105. In the case of “AGGGGACACGGGCAAAGACUUGGGGGUUCCUGGGACCCUCAGACGUGUGUCCUCU [hsa-mir-877]”, the “pull-down binding Z-score” value was 0.297. In the case of “AGGGGUCAUAUCUCUUCUCAGGGAAAGCAGGAGCCCUUCAGCAGGGUCAGGGCCCCU [hsa-mir-6891]”, the “pull-down binding Z-score” value was 0.263. In the case of “AGGGUGGAGCCCACUGUGGCUCCUGACUCAGCCCU [hsa-mir-6893]”, the “pull-down binding Z-score” value was 0.0411. With AGGUAGUGAUAUGUGCAUCUACU [hsa-mir-17] the “pull-down binding Z-score” value was 0.142. In the case of AGGUAGUGUGAUUACCCAACCUACU [hsa-mir-93], the “pull-down binding Z-score” value was -0.179. For AGGUAGUGUUUAGUUAUCUACU [hsa-mir-20a], the “pull-down binding Z-score” value was 0.257. AGGUCUCCUGGCAU [hsa-mir-4256] was tested, and the “pull-down binding Z-score” value was -0.439. For AGGUGCUAGGUCGGCCUCGGC [hsa-mir-5787], the “pull-down binding Z-score” value was 0.351. “AGGUGGAAAGGGAGCAGGAGCAUCGUCUUUAAGAGGGUCAGGUACCUUUGCUCUUA [hsa-mir-6083]” was tested, and the “pull-down binding Z-score” value was 0.394. With AGGUUCUGCUGGCUGAGAACCU [hsa-mir-3667] the “pull-down binding Z-score” value was -0.106. For “AGGUUGGCUGGGCCAGGCCUGACCU [hsa-mir-4722]”, the “pull-down binding Z-score” value was -0.00273. “AGGUUUAUGACUGGGCAUUUCUCACCCAAUGCCCAAUAUUGAACUU [hsa-mir-4431]” was tested, and the “pull-down binding Z-score” value was -0.213. “AGGUUUGUGUCCAAUACAGUCCACACCU [hsa-mir-3200]” was tested, and the “pull-down binding Z-score” value was -0.367. For “AGUAGCUGGGAAUACAGGUGUGUGCCACCAUGCCUCUACAAGCUACC [hsa-mir-7851]”, the “pull-down binding Z-score” value was -0.134. In the case of “AGUAUGGAUUAAAUUUAUAUUUUCCUCGAUACU [hsa-mir-8084]”, the “pull-down binding Z-score” value was 0.212. In the case of “AGUAUUUUAAUCAUAGAUUGUAUUUAGUUAGUUUUUAAUACU [hsa-mir-4637]”, the “pull-down binding Z-score” value was 0.157. In the case of AGUCACUUACACUACAUGUCACU [hsa-mir-892a], the “pull-down binding Z-score” value was -0.63. With AGUCACUUAGAUUACAUGUCACU [hsa-mir-892c] the “pull-down binding Z-score” value was 0.0543. AGUCACUUAGAUUACAUGUGACU [hsa-mir-888] was tested, and the “pull-down binding Z-score” value was -0.513. AGUCCAAAGGAAAGGGCU [hsa-mir-8077] was tested, and the “pull-down binding Z-score” value was 0.232. “AGUCCGUGCAUCCGCCCUUCGAUGCUUGGGUU [hsa-mir-3182]” was tested, and the “pull-down binding Z-score” value was -0.389. In the case of AGUCCUGUAAUUAGAUCUCAGGACU [hsa-mir-625], the “pull-down binding Z-score” value was -0.739. For “AGUCUCUGAAGAGAGCUGUGGACUGA [hsa-mir-6721]”, the “pull-down binding Z-score” value was 0.732. For AGUCUGUCUCAUACCCAACCAGAUU [hsa-mir-205], the “pull-down binding Z-score” value was 0.167. In the case of “AGUGAAAUAAAGGUCCAUCUCCUGCCUAUUUAUUACUUUGCU [hsa-mir-1243]”, the “pull-down binding Z-score” value was -0.112. In the case of AGUGAGCUGAGAUCACGCAACU [hsa-mir-1273f], the “pull-down binding Z-score” value was 0.00609. AGUGAGGCGUCGGCUGUGUUUCU [hsa-mir-2110] was tested, and the “pull-down binding Z-score” value was 0.174. AGUGAGUUGAUUACUUCUCACU [hsa-mir-4676] was tested, and the “pull-down binding Z-score” value was -0.441. “AGUGCAGUAUGGUGAAGUCAAUCUGUAAU [hsa-mir-590]” was tested, and the “pull-down binding Z-score” value was 0.0335. “AGUGCCUCACAGCCGCACAGGACCGAGGAUGCU [hsa-mir-4737]” was tested, and the “pull-down binding Z-score” value was -0.204. In the case of AGUGCUAGGACACU [hsa-mir-374c], the “pull-down binding Z-score” value was -0.413.
